The text below walks through data of patent US20190225676A1 (Hoffmann-La Roche, published 2019).

Assay [1] concerns the target T1, human Collagen type II (Millipore CC052) (human, UniProt P02458 182-1241, limits assumed).
T1 construct: Bought material, immobilised by amine coupling on the sensor chip; also called human collagen II
As to the kind of experiment: SPR (BIAcore T200), collagen II amine-coupled on chip, construct injected 1.23-900 nM, 25 C, 1:1 Langmuir fit. How it is done:
(§1) Binding kinetics of anti-collagen antibodies to human Collage type II (Millipore CC052) and porcine Collagen type II (USBiological C7510-31) was investigated by surface plasmon resonance using a BIAcore T200 instrument (GE Healthcare). All experiments were performed at 25° C. using HBS-P (10 mM […], 140 mM NaCl, 0.05% Tween 20 pH 7.4) as running and dilution buffer. Collagen type II was immobilized on a Series S CMS Sensor Chip (GE Healthcare) using standard amine coupling chemistry. Anti-Collagen antibodies were injected for 180 s with concentrations from 1.23 up to 900 nM (1:3 dilution series) onto the surface (association phase). The dissociation phase was monitored for 600 sec by washing with running buffer. The surface was regenerated by injecting 0.85% H₃PO₄ for 60 sec. Bulk refractive index differences were corrected by subtracting the response obtained from a mock surface. Blank injections were subtracted (double referencing). The derived curves were fitted to a 1:1 Langmuir binding model using the BIAevaluation software.
(In general: SPR reads the build-up and loss of mass on a sensor chip optically.)

Assay [2] deals with T2, porcine Collagen type II (USBiological C7510-31) (porcine).
T2 construct: Bought material, immobilised by amine coupling on the sensor chip; also called porcine collagen II
The description is as above. How it is done: as §1

Assay [3] concerns the target collagen (ECM compound added to PBS in the FCS diffusion test solution). As to the kind of experiment: cell-based or functional assay.

T1 sequence (P02458 182-1241 limits assumed): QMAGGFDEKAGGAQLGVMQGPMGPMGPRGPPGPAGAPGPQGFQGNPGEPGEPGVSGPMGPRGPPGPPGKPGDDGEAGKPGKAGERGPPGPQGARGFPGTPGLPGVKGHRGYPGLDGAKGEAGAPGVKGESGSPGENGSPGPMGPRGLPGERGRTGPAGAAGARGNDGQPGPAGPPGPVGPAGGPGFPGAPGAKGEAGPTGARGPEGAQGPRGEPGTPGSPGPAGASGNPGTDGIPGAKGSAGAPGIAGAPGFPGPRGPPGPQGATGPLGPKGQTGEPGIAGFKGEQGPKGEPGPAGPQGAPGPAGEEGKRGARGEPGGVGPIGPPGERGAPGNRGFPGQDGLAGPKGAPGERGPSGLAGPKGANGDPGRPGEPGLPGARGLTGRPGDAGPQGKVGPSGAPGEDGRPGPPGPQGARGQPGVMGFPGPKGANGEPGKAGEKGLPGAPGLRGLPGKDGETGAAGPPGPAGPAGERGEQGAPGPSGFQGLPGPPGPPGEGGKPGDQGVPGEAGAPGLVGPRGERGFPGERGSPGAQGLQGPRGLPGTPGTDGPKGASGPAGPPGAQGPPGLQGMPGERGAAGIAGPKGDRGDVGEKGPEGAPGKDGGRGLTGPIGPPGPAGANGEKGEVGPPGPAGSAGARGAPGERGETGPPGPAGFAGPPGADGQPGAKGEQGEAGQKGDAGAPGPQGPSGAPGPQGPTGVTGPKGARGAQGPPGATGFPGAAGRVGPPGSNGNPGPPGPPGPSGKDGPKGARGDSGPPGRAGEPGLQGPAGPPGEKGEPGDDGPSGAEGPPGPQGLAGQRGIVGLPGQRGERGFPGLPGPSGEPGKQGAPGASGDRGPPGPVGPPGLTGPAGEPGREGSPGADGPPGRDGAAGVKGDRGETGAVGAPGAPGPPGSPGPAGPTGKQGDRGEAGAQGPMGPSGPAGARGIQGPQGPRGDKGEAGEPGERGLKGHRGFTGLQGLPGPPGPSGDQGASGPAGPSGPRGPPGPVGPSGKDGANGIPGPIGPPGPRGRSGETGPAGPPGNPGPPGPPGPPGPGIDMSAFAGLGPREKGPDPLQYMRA

B1: FAB-COLL-II: anti-digoxigenin antibody Fab conjugated to anti-collagen II antibody scFv II (bispecific antibody)
heavy: QVQLVESGGGLVKPGGSLRLSCAASGFTFSDYAMSWIRQAPGKGLEWVSSINIGATYIYYADSVKGRFTISRDNAKNSLYLQMNSLRAEDTAVYYCARPGSPYEYDKAYYSMAYWGQGTTVTVSSASTKGPSVFPLAPSSKSTSGGTAALGCLVKDYFPEPVTVSWNSGALTSGVHTFPAVLQSSGLYSLSSVVTVPSSSLGTQTYICNVNHKPSNTKVDKKVEPKSCGGGGSGGGGSEIVLTQSPATLSLSPGERATLSCRASQSVDDWLAWYQQKPGQAPRLLIYDASNRATGIPARFSGSGSGTDFTLTISSLEPEDFAVYYCQQGDTAPITFGQGTKVEIKGGGGSGGGGSGGGGSGGGGSQVQLVQSGAEVKKPGSSVKVSCKASGGTFSSYAISWVRQAPGQGLEWMGGIIPIFGTANYAQKFQGRVTITADESTSTAYMELSSLRSEDTAVYYCARNIVGDYLLDYWGQGTLVTVSS
light: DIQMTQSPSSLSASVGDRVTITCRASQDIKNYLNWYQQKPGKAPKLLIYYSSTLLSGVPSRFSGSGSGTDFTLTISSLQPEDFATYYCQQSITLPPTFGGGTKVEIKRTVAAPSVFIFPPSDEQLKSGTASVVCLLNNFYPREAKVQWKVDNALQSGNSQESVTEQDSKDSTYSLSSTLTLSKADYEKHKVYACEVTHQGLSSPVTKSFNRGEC
notes: Fab-scFv fusion; also called FAB-COLL-II (8 nM)
B1: the Kd is 15 nM in assay [1] and 50 nM in assay [2]. Further, the “diffusion rate FCS (increase in PBS comprising ECM compound at equimolar concentration compared to PBS alone)” value in assay [3] was found to be 260%.

B2: FAB-COLL-III: anti-digoxigenin antibody Fab conjugated to anti-collagen II antibody scFv III (bispecific antibody)
heavy: QVQLVESGGGLVKPGGSLRLSCAASGFTFSDYAMSWIRQAPGKGLEWVSSINIGATYIYYADSVKGRFTISRDNAKNSLYLQMNSLRAEDTAVYYCARPGSPYEYDKAYYSMAYWGQGTTVTVSSASTKGPSVFPLAPSSKSTSGGTAALGCLVKDYFPEPVTVSWNSGALTSGVHTFPAVLQSSGLYSLSSVVTVPSSSLGTQTYICNVNHKPSNTKVDKKVEPKSCGGGGSGGGGSEIVLTQSPATLSLSPGERATLSCRASQSVADWLAWYQQKPGQAPRLLIYDASNRATGIPARFSGSGSGTDFTLTISSLEPEDFAVYYCQQYDGWPITFGQGTKVEIKGGGGSGGGGSGGGGSGGGGSQVQLVQSGAEVKKPGSSVKVSCKASGGTFSSYAISWVRQAPGQGLEWMGGIIPIFGTANYAQKFQGRVTITADESTSTAYMELSSLRSEDTAVYYCARHLYYMLDYWGQGTLVTVSS
light: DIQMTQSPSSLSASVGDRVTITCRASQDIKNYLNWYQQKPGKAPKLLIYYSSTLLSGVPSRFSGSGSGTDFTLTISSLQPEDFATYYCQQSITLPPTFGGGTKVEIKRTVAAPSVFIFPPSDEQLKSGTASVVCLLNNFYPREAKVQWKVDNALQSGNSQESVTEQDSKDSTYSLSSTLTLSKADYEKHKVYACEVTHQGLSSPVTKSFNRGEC
notes: Fab-scFv fusion; also called FAB-COLL-III (8 nM)
For the molecule B2, the results for the dissociation constant (Kd) in assay [1] and in assay [2] were 180 nM and 342 nM, respectively. Also, the “diffusion rate FCS (increase in PBS comprising ECM compound at equimolar concentration compared to PBS alone)” value in assay [3] came out at 40%.

B3: FAB-COLL-I: anti-digoxigenin antibody Fab conjugated to anti-collagen II antibody scFv I (bispecific antibody)
heavy: QVQLVESGGGLVKPGGSLRLSCAASGFTFSDYAMSWIRQAPGKGLEWVSSINIGATYIYYADSVKGRFTISRDNAKNSLYLQMNSLRAEDTAVYYCARPGSPYEYDKAYYSMAYWGQGTTVTVSSASTKGPSVFPLAPSSKSTSGGTAALGCLVKDYFPEPVTVSWNSGALTSGVHTFPAVLQSSGLYSLSSVVTVPSSSLGTQTYICNVNHKPSNTKVDKKVEPKSCGGGGSGGGGSEIVLTQSPATLSLSPGERATLSCRASQSVRDFLAWYQQKPGQAPRLLIYGASNRATGIPARFSGSGSGTDFTLTISSLEPEDFAVYYCQQRGSAPLTFGQGTKVEIKGGGGSGGGGSGGGGSGGGGSQVQLVQSGAEVKKPGSSVKVSCKASGGTFSSYAISWVRQAPGQGLEWMGGIIPIFGTANYAQKFQGRVTITADESTSTAYMELSSLRSEDTAVYYCARDPNGNIVLSEYFDYWGQGTLVTVSS
light: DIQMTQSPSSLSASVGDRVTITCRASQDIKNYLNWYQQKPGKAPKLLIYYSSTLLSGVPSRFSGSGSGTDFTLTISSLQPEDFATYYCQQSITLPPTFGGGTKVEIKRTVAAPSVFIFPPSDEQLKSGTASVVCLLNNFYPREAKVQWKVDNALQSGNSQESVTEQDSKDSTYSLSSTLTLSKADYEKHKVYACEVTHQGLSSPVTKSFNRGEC
notes: Fab-scFv fusion; also called FAB-COLL-I (2 nM)
Turning to B3, the dissociation constant (Kd) in assay [1] was 30 nM; in assay [2], 56 nM. For the same molecule, in assay [3], the “diffusion rate FCS (increase in PBS comprising ECM compound at equimolar concentration compared to PBS alone)” value was 180%.

One may read the Kd as the equilibrium constant for the complex coming apart. Lower therefore signals higher affinity.
